# ± gives the uncertainty stated by the source.
# Test: self-splicing fitness, log relative to wild type (ln ratio); higher = more splicing; Tetrahymena group I intron in knt gene, E. coli kanamycin selection, DiMSum; sequences stand for … in CUCUCU…GGAGGGAAAAGUUAUCAGGCAUGCACCUGGUAGCUAGUCUUUAAACCAAUAGAUUGCAUCGGUUUAAAAGGCAAGACCGUCAAAUUGCGGGAAAGGGGUCAACAGCCGUUCAGUACCAAGUCUCAGGGGAAACUUUGAGAUGGCCUUGCAAAGGGUAUGGUAAUAAGCUGACGGACAUGGUCCUAACCACGCAGCCAAGUCCUAAGUCAACAGAUCUUCUGUUGAUAUGGAUGCAGUUCACAGACUAAAUGUCGGUCGGGGAAGAUGUAUUCUUCUCAUAAGAUAUAGUCGGACCUCUCCUUAAUGGGAGCUAGCGGAUGAAGUGAUGCAACACUGGAGCCGCUGGGAACUAAUUUGUAUGCGAAAGUAUAUUGAUUAGUUUUGGAGUACUCGUGGUCG
# Procedure, shortened: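 Colonies from six replicate transformations of E. coli BL21(DE3) were pooled and amplicon-sequenced on an Illumina HiSeq 2500. The library placed an intron with all eight P1ex-region nucleotides randomised inside the knt kanamycin-resistance gene on pET-22b(+), and cells grew overnight at 37°C or 30°C on LB agar with or without 25 μg/mL kanamycin (plus 100 μg/mL carbenicillin, 50 μM IPTG, 0.2% rhamnose). Fitness is the DiMSum error-weighted combination of wild-type-normalised replicate fold changes, kanamycin versus none.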
Sequence,self-splicing fitness (ln) (30 °C),self-splicing fitness (ln) (37 °C)
GCCAAGCAAUAUUACGACGA,-1.84 ± 0.15,-1.02 ± 0.2
CAGCAGCAAUAUUACGAGAU,-2.65 ± 0.24,-1.71 ± 0.2
UCCCAGCAAUAUUACGUAAG,-3.88 ± 0.18,-1.97 ± 0.17
CACAAGCAAUAUUACGAUAA,-4.26 ± 0.33,-2.22 ± 0.16
GGUUAGCAAUAUUACGGCAU,-0.0374 ± 0.082,-0.0754 ± 0.096
AUAAAGCAAUAUUACGCCUA,-0.422 ± 0.091,-0.286 ± 0.1
GCUCAGCAAUAUUACGAUAG,-1.95 ± 0.11,-1.26 ± 0.096
GAGAAGCAAUAUUACGAAAA,-3.53 ± 0.4,-2.2 ± 0.31
UAUAAGCAAUAUUACGUGAU,-1.89 ± 0.13,-1.45 ± 0.17
AGCAAGCAAUAUUACGGAAG,-3.35 ± 0.25,-2.32 ± 0.26
GAUUAGCAAUAUUACGUCGA,-1.83 ± 0.12,-0.819 ± 0.11
AGUUAGCAAUAUUACGCAGA,-2.06 ± 0.26,-2.04 ± 0.26
ACUGAGCAAUAUUACGGUGG,-3.61 ± 0.16,-2.37 ± 0.18
GCCGAGCAAUAUUACGUGGC,-3.26 ± 0.14,-2.25 ± 0.21
AUGAAGCAAUAUUACGGGCA,0.212 ± 0.079,0.459 ± 0.09
CUAUAGCAAUAUUACGGAUA,–,-2.24 ± 0.37
GAAAAGCAAUAUUACGGUGA,-1.48 ± 0.07,-1.07 ± 0.075
CCGUAGCAAUAUUACGGUCA,-1.64 ± 0.12,-2.27 ± 0.19
GACCAGCAAUAUUACGACUG,-2.86 ± 0.15,-2.12 ± 0.17
UAGCAGCAAUAUUACGCGAG,-1.83 ± 0.097,-0.971 ± 0.11
CAUAAGCAAUAUUACGAUAC,–,-2.28 ± 0.34
CGUUAGCAAUAUUACGAGGA,-2.48 ± 0.27,-2.13 ± 0.27

Sequence,self-splicing fitness (ln) (30 °C),self-splicing fitness (ln) (37 °C)
UGCGAGCAAUAUUACGGGCU,-2.97 ± 0.25,–
UUGUAGCAAUAUUACGAUCC,–,-0.641 ± 0.37
GAUCAGCAAUAUUACGCGUC,-2.9 ± 0.18,-3.33 ± 0.4
GAACAGCAAUAUUACGUAUC,-2.83 ± 0.1,-1.39 ± 0.12
UGACAGCAAUAUUACGCCGG,-0.618 ± 0.12,-0.791 ± 0.15
UAGGAGCAAUAUUACGCGCG,-0.62 ± 0.11,-1.29 ± 0.14
GCUCAGCAAUAUUACGAUCC,-0.823 ± 0.076,-0.215 ± 0.1
AGAAAGCAAUAUUACGUUGA,-2.09 ± 0.14,-1.23 ± 0.14
AUCUAGCAAUAUUACGACGG,-2.58 ± 0.33,-2.23 ± 0.42
AGACAGCAAUAUUACGGCUG,-2.93 ± 0.14,-2.34 ± 0.19
AAACAGCAAUAUUACGGAGU,-3.77 ± 0.16,-2.53 ± 0.11
AACUAGCAAUAUUACGGUUC,-4.49 ± 0.24,-2.94 ± 0.21
CUCCAGCAAUAUUACGGCUU,-1.73 ± 0.19,-2.76 ± 0.31
AUCUAGCAAUAUUACGCGCA,-0.448 ± 0.1,-0.485 ± 0.11
CACGAGCAAUAUUACGUGGG,-4.45 ± 0.29,-2.71 ± 0.18
UUUAAGCAAUAUUACGUCGG,-0.492 ± 0.079,-0.762 ± 0.089
GAGCAGCAAUAUUACGGACG,-2.19 ± 0.42,-1.72 ± 0.33
AAUGAGCAAUAUUACGGUGG,-3.48 ± 0.21,-1.89 ± 0.24
GACCAGCAAUAUUACGCCGU,-0.962 ± 0.075,-0.0427 ± 0.08
CGCCAGCAAUAUUACGCUAG,-2.94 ± 0.16,-2.4 ± 0.23
ACGUAGCAAUAUUACGACAC,-1.46 ± 0.21,-0.658 ± 0.18

# Reference: the supplement of paper PMC7877785
